These sequences were tested on Escherichia coli TOP10 (assay: shrunken log2 fold change of peptide-encoding DNA abundance (4.5 h post-induction vs induction); higher = less antimicrobial activity (less host growth inhibition)). Conditions: time post-induction: 4.5 h; library: site-saturation at positions 5, 18, 19, 20.
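Also: peptides expressed intracellularly from a pBAD plasmid library in pooled LB shake-flask culture, induced with 0.3% L-arabinose, DNA abundance read by NGS, three biological replicates, DESeq2 with apeglm shrinkage.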

Row | Sequence | shrunken log2 fold change
1 | RRIRIRPPRLPRPRPRPDFNPRP | -0.701
2 | RRIRIRPPRLPRPRPRPDFSPRP | -0.175
3 | RRIRIRPPRLPRPRPRPDFWPRP | 0.0448
4 | RRIRIRPPRLPRPRPRPDLNPRP | -0.211
5 | RRIRIRPPRLPRPRPRPDLSPRP | -0.000521
6 | RRIRIRPPRLPRPRPRPDMLPRP | -0.618
7 | RRIRIRPPRLPRPRPRPDPAPRP | 0.0747
8 | RRIRIRPPRLPRPRPRPDPGPRP | -0.0404
9 | RRIRIRPPRLPRPRPRPDQGPRP | 0.0651
10 | RRIRIRPPRLPRPRPRPDSSPRP | -0.318
11 | RRIRIRPPRLPRPRPRPDTQPRP | -0.167
12 | RRIRIRPPRLPRPRPRPDVFPRP | -0.115
13 | RRIRIRPPRLPRPRPRPDVKPRP | -0.147
14 | RRIRIRPPRLPRPRPRPDVSPRP | -0.121
15 | RRIRIRPPRLPRPRPRPDVWPRP | -0.109
16 | RRIRIRPPRLPRPRPRPDWPPRP | 0.0262
17 | RRIRIRPPRLPRPRPRPDWVPRP | 0.135
18 | RRIRIRPPRLPRPRPRPDYRPRP | 0.0581
19 | RRIRIRPPRLPRPRPRPDYYPRP | -0.155
20 | RRIRIRPPRLPRPRPRPECDPRP | 0.0126
21 | RRIRIRPPRLPRPRPRPECLPRP | 0.0969
22 | RRIRIRPPRLPRPRPRPEEIPRP | -0.0261
23 | RRIRIRPPRLPRPRPRPEENPRP | -0.306
24 | RRIRIRPPRLPRPRPRPEFCPRP | -0.0252
25 | RRIRIRPPRLPRPRPRPEFHPRP | 0.0992

Row | Sequence | shrunken log2 fold change
26 | RRIRIRPPRLPRPRPRPEHLPRP | -0.105
27 | RRIRIRPPRLPRPRPRPEHRPRP | -0.051
28 | RRIRIRPPRLPRPRPRPEIEPRP | -0.0562
29 | RRIRIRPPRLPRPRPRPELMPRP | -0.00872
30 | RRIRIRPPRLPRPRPRPEMEPRP | -0.0895
31 | RRIRIRPPRLPRPRPRPEMFPRP | 0.0821
32 | RRIRIRPPRLPRPRPRPEMPPRP | 0.0112
33 | RRIRIRPPRLPRPRPRPEQCPRP | -0.122
34 | RRIRIRPPRLPRPRPRPEQMPRP | 0.224
35 | RRIRIRPPRLPRPRPRPEQTPRP | 0.0649
36 | RRIRIRPPRLPRPRPRPESAPRP | 0.0116
37 | RRIRIRPPRLPRPRPRPESMPRP | 0.0174
38 | RRIRIRPPRLPRPRPRPEVGPRP | 0.0138
39 | RRIRIRPPRLPRPRPRPEVPPRP | -0.0152
40 | RRIRIRPPRLPRPRPRPEWPPRP | 0.0836
41 | RRIRIRPPRLPRPRPRPFAAPRP | -0.258
42 | RRIRIRPPRLPRPRPRPFAMPRP | -0.98
43 | RRIRIRPPRLPRPRPRPFAYPRP | -0.396
44 | RRIRIRPPRLPRPRPRPFCTPRP | -0.542
45 | RRIRIRPPRLPRPRPRPFDWPRP | 0.305
46 | RRIRIRPPRLPRPRPRPFFAPRP | 0.073
47 | RRIRIRPPRLPRPRPRPFGDPRP | -0.0112
48 | RRIRIRPPRLPRPRPRPFGKPRP | -0.0569
49 | RRIRIRPPRLPRPRPRPFGSPRP | 0.00777
50 | RRIRIRPPRLPRPRPRPFHEPRP | -0.0627

Row | Sequence | shrunken log2 fold change
51 | RRIRIRPPRLPRPRPRPFKAPRP | -0.431
52 | RRIRIRPPRLPRPRPRPFKVPRP | -0.0829
53 | RRIRIRPPRLPRPRPRPFMMPRP | 0.0298
54 | RRIRIRPPRLPRPRPRPFMVPRP | -0.975
55 | RRIRIRPPRLPRPRPRPFNFPRP | -0.31
56 | RRIRIRPPRLPRPRPRPFNPPRP | -0.0657
57 | RRIRIRPPRLPRPRPRPFPPPRP | -0.353
58 | RRIRIRPPRLPRPRPRPFRIPRP | -0.103
59 | RRIRIRPPRLPRPRPRPFSFPRP | -0.742
60 | RRIRIRPPRLPRPRPRPFTMPRP | -0.79
61 | RRIRIRPPRLPRPRPRPFVGPRP | -0.134
62 | RRIRIRPPRLPRPRPRPFYSPRP | -0.476
63 | RRIRIRPPRLPRPRPRPGADPRP | -0.193
64 | RRIRIRPPRLPRPRPRPGAKPRP | 0.126
65 | RRIRIRPPRLPRPRPRPGCGPRP | 0.349
66 | RRIRIRPPRLPRPRPRPGCMPRP | -0.134
67 | RRIRIRPPRLPRPRPRPGCQPRP | -0.0196
68 | RRIRIRPPRLPRPRPRPGDCPRP | -0.185
69 | RRIRIRPPRLPRPRPRPGDLPRP | -0.223
70 | RRIRIRPPRLPRPRPRPGEDPRP | 0.00101
71 | RRIRIRPPRLPRPRPRPGENPRP | -0.0334
72 | RRIRIRPPRLPRPRPRPGEVPRP | 0.0961
73 | RRIRIRPPRLPRPRPRPGFCPRP | 0.135
74 | RRIRIRPPRLPRPRPRPGFIPRP | -0.391
75 | RRIRIRPPRLPRPRPRPGIGPRP | 0.127

Row | Sequence | shrunken log2 fold change
76 | RRIRIRPPRLPRPRPRPGILPRP | -0.128
77 | RRIRIRPPRLPRPRPRPGKTPRP | -0.126
78 | RRIRIRPPRLPRPRPRPGLPPRP | 0.209
79 | RRIRIRPPRLPRPRPRPGLYPRP | -0.0503
80 | RRIRIRPPRLPRPRPRPGMGPRP | 0.132
81 | RRIRIRPPRLPRPRPRPGNDPRP | -0.0662
82 | RRIRIRPPRLPRPRPRPGPAPRP | 0.383
83 | RRIRIRPPRLPRPRPRPGPHPRP | 0.0135
84 | RRIRIRPPRLPRPRPRPGPQPRP | 0.0436
85 | RRIRIRPPRLPRPRPRPGRNPRP | 0.0581
86 | RRIRIRPPRLPRPRPRPGSDPRP | -0.209
87 | RRIRIRPPRLPRPRPRPGSEPRP | -0.187
88 | RRIRIRPPRLPRPRPRPGSWPRP | 0.227
89 | RRIRIRPPRLPRPRPRPGTSPRP | -0.0281
90 | RRIRIRPPRLPRPRPRPGTWPRP | -0.475
91 | RRIRIRPPRLPRPRPRPGWMPRP | 0.0116
92 | RRIRIRPPRLPRPRPRPGYDPRP | -0.576
93 | RRIRIRPPRLPRPRPRPHADPRP | -0.178
94 | RRIRIRPPRLPRPRPRPHANPRP | -0.181
95 | RRIRIRPPRLPRPRPRPHCEPRP | -1.54
96 | RRIRIRPPRLPRPRPRPHCNPRP | -0.784
97 | RRIRIRPPRLPRPRPRPHECPRP | -0.164
98 | RRIRIRPPRLPRPRPRPHEFPRP | -0.241
99 | RRIRIRPPRLPRPRPRPHENPRP | -0.581
100 | RRIRIRPPRLPRPRPRPHEWPRP | 0.0272

Row | Sequence | shrunken log2 fold change
101 | RRIRIRPPRLPRPRPRPHFMPRP | -0.685
102 | RRIRIRPPRLPRPRPRPHFQPRP | -1.78
103 | RRIRIRPPRLPRPRPRPHGQPRP | -0.0468
104 | RRIRIRPPRLPRPRPRPHIHPRP | -0.811
105 | RRIRIRPPRLPRPRPRPHIRPRP | -0.297
106 | RRIRIRPPRLPRPRPRPHKQPRP | -0.0164
107 | RRIRIRPPRLPRPRPRPHLDPRP | 0.178
108 | RRIRIRPPRLPRPRPRPHMQPRP | -0.169
109 | RRIRIRPPRLPRPRPRPHNMPRP | -0.898
110 | RRIRIRPPRLPRPRPRPHNNPRP | -0.313
111 | RRIRIRPPRLPRPRPRPHRFPRP | -0.62
112 | RRIRIRPPRLPRPRPRPHTDPRP | -0.777
113 | RRIRIRPPRLPRPRPRPHVCPRP | 0.41
114 | RRIRIRPPRLPRPRPRPHVKPRP | -0.213
115 | RRIRIRPPRLPRPRPRPHVVPRP | -0.0217
116 | RRIRIRPPRLPRPRPRPHWNPRP | -0.758
117 | RRIRIRPPRLPRPRPRPHWQPRP | 1.4
118 | RRIRIRPPRLPRPRPRPHYTPRP | -0.591
119 | RRIRIRPPRLPRPRPRPIAEPRP | -0.22
120 | RRIRIRPPRLPRPRPRPIAQPRP | -0.373
121 | RRIRIRPPRLPRPRPRPICPPRP | 0.0188
122 | RRIRIRPPRLPRPRPRPICTPRP | -0.458
123 | RRIRIRPPRLPRPRPRPIDYPRP | -1.06
124 | RRIRIRPPRLPRPRPRPIGGPRP | -0.0686
125 | RRIRIRPPRLPRPRPRPIGWPRP | 0.0224

Row | Sequence | shrunken log2 fold change
126 | RRIRIRPPRLPRPRPRPIIWPRP | -0.167
127 | RRIRIRPPRLPRPRPRPIKDPRP | -0.467
128 | RRIRIRPPRLPRPRPRPIKRPRP | -0.0331
129 | RRIRIRPPRLPRPRPRPILAPRP | -0.286
130 | RRIRIRPPRLPRPRPRPILCPRP | -0.0872
131 | RRIRIRPPRLPRPRPRPIQCPRP | 0.0629
132 | RRIRIRPPRLPRPRPRPIQKPRP | 0.00853
133 | RRIRIRPPRLPRPRPRPIRRPRP | 0.00942
134 | RRIRIRPPRLPRPRPRPISFPRP | 0.00109
135 | RRIRIRPPRLPRPRPRPISLPRP | -0.129
136 | RRIRIRPPRLPRPRPRPIVEPRP | 0.0786
137 | RRIRIRPPRLPRPRPRPIYTPRP | -0.728
138 | RRIRIRPPRLPRPRPRPKAIPRP | -0.157
139 | RRIRIRPPRLPRPRPRPKDMPRP | -0.221
140 | RRIRIRPPRLPRPRPRPKDVPRP | -0.141
141 | RRIRIRPPRLPRPRPRPKFQPRP | -0.327
142 | RRIRIRPPRLPRPRPRPKGSPRP | 0.00745
143 | RRIRIRPPRLPRPRPRPKHNPRP | -0.349
144 | RRIRIRPPRLPRPRPRPKHSPRP | -0.447
145 | RRIRIRPPRLPRPRPRPKICPRP | -0.883
146 | RRIRIRPPRLPRPRPRPKINPRP | -0.881
147 | RRIRIRPPRLPRPRPRPKLCPRP | 0.0563
148 | RRIRIRPPRLPRPRPRPKLNPRP | 0.0573
149 | RRIRIRPPRLPRPRPRPKMQPRP | -0.293
150 | RRIRIRPPRLPRPRPRPKNGPRP | -0.202
